Assay results taken from patent US20150284450A1, “COMBINATION THERAPIES USING ANTI-PSEUDOMONAS PSL AND PCRV BINDING MOLECULES” (priority 2012, published 2015).

What was measured:
[1] = molecular target: rPcrV protein (recombinant Pseudomonas PcrV) (Pseudomonas aeruginosa); assay: SPR on Bio-Rad ProteOn XPR36; antibody captured on GLC chip with anti-human IgG, rPcrV injected at multiple concentrations
[2] = molecular target: rPcrV protein (recombinant Pseudomonas PcrV) (Pseudomonas aeruginosa); assay: SPR on Bio-Rad ProteOn XPR36; antibody captured on GLC chip with anti-human IgG, rPcrV injected at multiple concentrations [table]
[3] = molecular target: rPcrV protein (recombinant Pseudomonas PcrV) (Pseudomonas aeruginosa); assay: Bio-Rad ProteOn XPR36; antibody captured by anti-human IgG on GLC chip, rPcrV injected

Binder	Kd [1]	koff [1]	kon [1]	Kd [2]	koff [2]	kon [2]	fold increase in Kd over V2L2-GL [3]
V2L2-germlined mAb (V2L2-GL) (antibody, V domains shown) VH: EVQLLESGGGLVQPGGSLRLSCAASGFTFSSYAMNWVRQAPGKGLEWVSAITISGITAYYTDSVKGRFTISRDNSKNTLYLQMNSLRAEDTAVYYCAKEEFLPGTHYYYGMDVWGQGTTVTVSS VL: AIQMTQSPSSLSASVGDRVTITCRASQGIRNDLGWYQQKPGKAPKLVIYSASTLQSGVPSRFSGSGSGTDFTLSISSLQPDDFATYYCLQDYNYPWTFGQGTKVEIK	143 pM	0.000116 s⁻¹	808000 M⁻¹ s⁻¹	143 pM	0.000116 s⁻¹	808000 M⁻¹ s⁻¹	–
V2L2-MD (germlined lead optimized V2L2) (antibody, V domains shown) VH: EVQLLESGGGLVQPGGSLRLSCAASGFTFSSYAMNWVRQAPGKGLEWVSAITMSGITAYYTDDVKGRFTISRDNSKNTLYLQMNSLRAEDTAVYYCAKEEFLPGTHYYYGMDVWGQGTTVTVSS VL: AIQMTQSPSSLSASVGDRVTITCRASQGIRNDLGWYQQKPGKAPKLLIYSASTLQSGVPSRFSGSGSGTDFTLTISSLQPEDFATYYCLQDYNYPWTFGQGTKVEIK	45.6 pM	4.03e-05 s⁻¹	884000 M⁻¹ s⁻¹	46 pM	4.03e-05 s⁻¹	884000 M⁻¹ s⁻¹	2 to 3 fold
